Among the data in patent US20190300590A1 (PROTAGONIST THERAPEUTICS, published 2019) are IC50 values, retold here.

This assay concerns the target T1, IL23R_huFC (human, UniProt Q5VWK5 24-353).
T1 sequence (looked up): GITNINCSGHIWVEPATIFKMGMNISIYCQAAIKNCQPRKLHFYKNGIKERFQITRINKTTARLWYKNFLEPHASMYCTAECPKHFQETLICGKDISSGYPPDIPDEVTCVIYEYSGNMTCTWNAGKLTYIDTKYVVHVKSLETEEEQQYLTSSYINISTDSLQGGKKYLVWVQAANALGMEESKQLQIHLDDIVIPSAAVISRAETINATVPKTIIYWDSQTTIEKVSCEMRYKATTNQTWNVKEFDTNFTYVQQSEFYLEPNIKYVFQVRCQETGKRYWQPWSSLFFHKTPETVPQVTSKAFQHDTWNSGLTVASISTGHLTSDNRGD
Put plainly: IL23-IL23R competitive ELISA. Background: In an ELISA, binding on a coated surface is turned into a signal by an enzyme label.

Broadly, the IC50 is the concentration that inhibits the measured activity by half.

Bridges are numbered along the chain shown (N, C = ends). [ ]: non-standard residue; d: D form. NMeW = CN[C@@H](Cc1c[nH]c2ccccc12)C(=O)O; 1Nal = N[C@@H](Cc1cccc2ccccc12)C(=O)O; NMeH = CN[C@@H](Cc1c[nH]cn1)C(=O)O; AEA = NCCOCC(=O)O; βAla = NCCC(=O)O; Sar = CNCC(=O)O Where only a bound is given, the exact number is not on record here.

Molecule H-AADWCAYWCTFG-NH2 (disulfide 5-9 (inferred)) [Hy-AADWCAYWCTFG-NH2] had an IC50 greater than 1000 nM. The value for H-CAD[NMeW]VCY[1Nal]HTF-OH (disulfide 1-6 (inferred)) [Hy-CAD-[N-Me-Trp]-VCY-[1-Nal]-HTF-OH] was greater than 1000 nM; that for CXDWVCYXHTF ([Sarc]; [1-Nal]; disulfide) [Hy-C-[Sarc]-DWVCY-[1-Nal]-HTF-OH] was greater than 1000 nM; that for H-CADWVCYWHT-NH2 (disulfide 1-6 (inferred)) [Hy-CADWVCYWHT-NH2] was greater than 1000 nM. Molecule H-CHTWVCYWHEFS-NH2 (disulfide 1-6 (inferred)) [Hy-CHTWVCYWHEFS-NH2] returned an IC50 greater than 1000 nM. The value for H-CETWECYWHSFS-NH2 (disulfide 1-6 (inferred)) [Hy-CETWECYWHSFS-NH2] was greater than 1000 nM; that for H-ACDWVCYWHTFG-NH2 (disulfide 2-6 (inferred)) [Hy-ACDWVCYWHTFG-NH2] was greater than 1000 nM. The value for H-CKDWKCYWHIYG-NH2 (disulfide 1-6 (inferred)) [Hy-CKDWKCYWHIYG-NH2] was greater than 1000 nM; that for H-CGNWECYWHVYG-NH2 (disulfide 1-6 (inferred)) [Hy-CGNWECYWHVYG-NH2] was greater than 1000 nM. The value for CADXVCYWHTFG ([1-Nal]; -NH2; disulfide) [Hy-CAD-[1-Nal]-VCYWHTFG-NH2] was greater than 1000 nM; that for H-CADWCCYWCTFG-NH2 (disulfide (positions not given here); also: disulfide pairing not given here) [Hy-CADWCCYWCTFG-NH2, listing 1 of 3 here] was greater than 1000 nM.

The molecule KCADWVCYWHTFG (Ac-; [(D)Lys]; disulfide) [Ac-[(D)Lys]-CADWVCYWHTFG-OH] displayed an IC50 greater than 1000 nM. Under H-CADWVCYWHTF-NH2 (disulfide 1-6 (inferred)) [Hy-CADWVCYWHTF-NH2] stands greater than 1000 nM; under H-CSDWRCYWHVFG-NH2 (disulfide 1-6 (inferred)) [Hy-CSDWRCYWHVFG-NH2], greater than 1000 nM. The value for H-CRTWVCYWHVFG-NH2 (disulfide 1-6 (inferred)) [Hy-CRTWVCYWHVFG-NH2] was greater than 1000 nM; that for CADXVCYWHTFG (not fully specified; [1-BIP]; -NH2; disulfide) [Hy-CAD-[1-BIP]-VCYWHTFG-NH2] was greater than 1000 nM; that for CADXVCYWHTFG ([Tic]; -NH2; disulfide) [Hy-CAD-[Tic]-VCYWHTFG-NH2] was greater than 1000 nM. Under H-CQSWECYWHYYG-NH2 (disulfide 1-6 (inferred)) [Hy-CQSWECYWHYYG-NH2] stands greater than 1000 nM.

B1: Hy-CADWVCY-[1-Nal]-[N-Me-His]-TF-OH (peptide)
peptide: H-CADWVCY[1Nal][NMeH]TF-OH
modifications: disulfide 1-6
SMILES: CC(C)[C@@H]1NC(=O)[C@H](Cc2c[nH]c3ccccc23)NC(=O)[C@H](CC(=O)O)NC(=O)[C@H](C)NC(=O)[C@@H](N)CSSC[C@@H](C(=O)N[C@@H](Cc2ccc(O)cc2)C(=O)N[C@@H](Cc2cccc3ccccc23)C(=O)N(C)[C@@H](Cc2c[nH]cn2)C(=O)N[C@H](C(=O)N[C@@H](Cc2ccccc2)C(=O)O)[C@@H](C)O)NC1=O
B1 registered an IC50 greater than 1000 nM. The value for Ac-[dK]SCADWVCYWHTFG-OH (disulfide 3-8 (inferred)) [Ac-[(D)Lys]-SCADWVCYWHTFG-OH] was greater than 1000 nM. The value for H-[βAla]SCADWVCYWHTFG-OH (disulfide 3-8 (inferred)) [Hy-[β-Ala]-SCADWVCYWHTFG-OH] was greater than 1000 nM; that for KACADWVCYWHTFG (Ac-; [(D)Lys]; [β-Ala]; disulfide) [Ac-[(D)Lys]-[β-Ala]-CADWVCYWHTFG-OH] was greater than 1000 nM.

B2: Ac-CQTWQCYWR-[Sarc]-NG-[AEA]-[(D)-Lys]-NH2 (peptide)
peptide: Ac-CQTWQCYWR[Sar]NG[AEA][dK]-NH2
modifications: disulfide 1-6
SMILES: CC(=O)N[C@H]1CSSC[C@@H](C(=O)N[C@@H](Cc2ccc(O)cc2)C(=O)N[C@@H](Cc2c[nH]c3ccccc23)C(=O)N[C@@H](CCCNC(=N)N)C(=O)N(C)CC(=O)N[C@@H](CC(N)=O)C(=O)NCC(=O)NCCOCC(=O)N[C@H](CCCCN)C(N)=O)NC(=O)[C@H](CCC(N)=O)NC(=O)[C@H](Cc2c[nH]c3ccccc23)NC(=O)[C@H]([C@@H](C)O)NC(=O)[C@H](CCC(N)=O)NC1=O
As to B2, the IC50 was greater than 1000 nM. In turn, H-ACDWCCYWCTFG-NH2 (disulfide (positions not given here); also: disulfide pairing not given here) [Hy-ACDWCCYWCTFG-NH2] displayed an IC50 greater than 1000 nM. Under H-CSDWECYWHIFG-NH2 (disulfide 1-6 (inferred)) [Hy-CSDWECYWHIFG-NH2] stands greater than 1000 nM; under H-CADWCCYWCTFG-NH2 (disulfide (positions not given here); also: disulfide pairing not given here) [Hy-CADWCCYWCTFG-NH2, listing 2 of 3 here], greater than 1000 nM; under CADWVCYXHTFG (not fully specified; [1-BIP]; -NH2; disulfide) [Hy-CADWVCY-[1-BIP]-HTFG-NH2], greater than 1000 nM.

B3: Ac-CADWVCY-[1-Nal]-H-[(D)Ala]-FG-NH2 (peptide)
peptide: Ac-CADWVCY[1Nal]H[dA]FG-NH2
modifications: disulfide 1-6
SMILES: CC(=O)N[C@H]1CSSC[C@@H](C(=O)N[C@@H](Cc2ccc(O)cc2)C(=O)N[C@@H](Cc2cccc3ccccc23)C(=O)N[C@@H](Cc2c[nH]cn2)C(=O)N[C@H](C)C(=O)N[C@@H](Cc2ccccc2)C(=O)NCC(N)=O)NC(=O)[C@H](C(C)C)NC(=O)[C@H](Cc2c[nH]c3ccccc23)NC(=O)[C@H](CC(=O)O)NC(=O)[C@H](C)NC1=O
Turning to B3, the IC50 was greater than 1000 nM.

B4: Ac-CADWVCY-[1-Nal]-H-[b-Ala]-FG-NH2 (peptide)
peptide: Ac-CADWVCY[1Nal]H[βAla]FG-NH2
modifications: disulfide 1-6
SMILES: CC(=O)N[C@H]1CSSC[C@@H](C(=O)N[C@@H](Cc2ccc(O)cc2)C(=O)N[C@@H](Cc2cccc3ccccc23)C(=O)N[C@@H](Cc2c[nH]cn2)C(=O)NCCC(=O)N[C@@H](Cc2ccccc2)C(=O)NCC(N)=O)NC(=O)[C@H](C(C)C)NC(=O)[C@H](Cc2c[nH]c3ccccc23)NC(=O)[C@H](CC(=O)O)NC(=O)[C@H](C)NC1=O
In turn, B4 displayed an IC50 greater than 1000 nM.

B5: Ac-CADWVCY-[1-Nal]-FTFG-NH2 (peptide)
peptide: Ac-CADWVCY[1Nal]FTFG-NH2
modifications: disulfide 1-6
SMILES: CC(=O)N[C@H]1CSSC[C@@H](C(=O)N[C@@H](Cc2ccc(O)cc2)C(=O)N[C@@H](Cc2cccc3ccccc23)C(=O)N[C@@H](Cc2ccccc2)C(=O)N[C@H](C(=O)N[C@@H](Cc2ccccc2)C(=O)NCC(N)=O)[C@@H](C)O)NC(=O)[C@H](C(C)C)NC(=O)[C@H](Cc2c[nH]c3ccccc23)NC(=O)[C@H](CC(=O)O)NC(=O)[C@H](C)NC1=O
Regarding B5, the IC50 was greater than 1000 nM.

B6: Ac-CADWVCY-[1-Nal]-[(D)Ala]-TFG-NH2 (peptide)
peptide: Ac-CADWVCY[1Nal][dA]TFG-NH2
modifications: disulfide 1-6
SMILES: CC(=O)N[C@H]1CSSC[C@@H](C(=O)N[C@@H](Cc2ccc(O)cc2)C(=O)N[C@@H](Cc2cccc3ccccc23)C(=O)N[C@H](C)C(=O)N[C@H](C(=O)N[C@@H](Cc2ccccc2)C(=O)NCC(N)=O)[C@@H](C)O)NC(=O)[C@H](C(C)C)NC(=O)[C@H](Cc2c[nH]c3ccccc23)NC(=O)[C@H](CC(=O)O)NC(=O)[C@H](C)NC1=O
As to B6, the IC50 is greater than 1000 nM. The value for H-CTDWVCYWHEYS-NH2 (disulfide 1-6 (inferred)) [Hy-CTDWVCYWHEYS-NH2] was greater than 1000 nM. Under CADXVCYWHTFG ([2-Nal]; -NH2; disulfide) [Hy-CAD-[2-Nal]-VCYWHTFG-NH2] stands greater than 1000 nM; under Ac-CKDWVCYWHTFG-OH (disulfide 1-6 (inferred)) [Ac-CKDWVCYWHTFG-OH], greater than 1000 nM. With H-CADWVCYAHTFG-NH2 (disulfide 1-6 (inferred)) [Hy-CADWVCYAHTFG-NH2], the concentration for half-maximal inhibition (IC50) was greater than 1000 nM. H-CADWCCYWCTFG-NH2 (disulfide (positions not given here); also: disulfide pairing not given here) [Hy-CADWCCYWCTFG-NH2, listing 3 of 3 here] yielded an IC50 greater than 1000 nM. The value for H-CADWVCY[1Nal]HTF-OH (disulfide 1-6 (inferred)) [Hy-CADWVCY-[1-Nal]-HTF-OH] was greater than 1000 nM; that for CADWVCYXHTFG ([Tic]; -NH2; disulfide) [Hy-CADWVCY[Tic]-HTFG-NH2] was greater than 1000 nM; that for H-CQTWVCYWHTYG-NH2 (disulfide 1-6 (inferred)) [Hy-CQTWVCYWHTYG-NH2] was greater than 1000 nM.
